From patent US8003345B2, “Antioxidant pharmaceutical compound, method for producing polypeptide and method of cure” (Institute of Cell Biophysics Russian Academy of Sciences, priority 2002, dated 2011)

Experiments:
skin cuts of rats = assay: Treating skin wounds (cuts) in rats; format: in vivo, rat; details: in 5 days; 0.5 mg/ml in 0.15 M NaCl, bandages changed once a day; against control; FIG. 10
Description: Rats were preliminarily narcotized by intraperitoneal introduction of hexenal (70 mg/kg). The animals were fixed on an operating table, and then 2-3 mm deep and 1 cm long cuts were made in the skin of both paws with the help of a razor blade. Control cuts were irrigated with physiological solution and a bactericidal plaster was applied; in the case of using peroxiredoxin, the wound was irrigated with a solution of recombinant Prx Vlhum or of its fragment ΔPrx Vlhum in 0.15 M NaCl in 0.5 mg/ml concentration, and a gauze bandage soaked with the same solutions was applied. The bandages were changed once a day.

[1] = Cytotoxicity: number of live line L929 cells; format: cell-based, human; details: 0.1-10 μg/ml concentration; Trypan stain
Description: (§1) The cytotoxicity is determined from the influence of recombinant Prx V1hum or of natural rat Prx V1rat on the level of proliferation of line L929 human lymphoblastoma cells and of T-lymphocytes from the spleen of line NRRI rats stimulated with concavalin A.
(§2) Cells of two lines with the concentration of 10^4 cells/ml medium were cultivated in RPMI 1640 containing 5% of bovine fetal serum. The stimulation of T-lymphocytes was carried out with the 0.1 μg/ml concentration of concavalin. In the case of T-lymphocytes the proliferation level was determined from the inclusion of ^3H-thymidine. The number of live line L929 cells was determined in a 96-cell plate with the aid of a Trypan stain, followed by scanning on a Multiscan multichannel photometer (LKB, Sweden).

[2] = test system: tracheal epithelium of rat after application of lipopolysaccharide; assay: Inflammation of rat tracheal epithelium caused by lipopolysaccharide (LPS); format: in vivo
Description: The therapeutic properties of peroxiredoxin Prx VI in treating the upper respiratory tract of rat immediately after the application of LPS were checked on a group of 4 Wistar line rats weighing 150-200 grams. The application of LPS was carried out in the following manner. The rats were anesthetized with hexenal, and 100 μl of a lipopolysaccharide solution were introduced through a catheter (the lipopolysaccharide concentration was from 10^−9 to 10^−11 mg/ml, the total number of the used animals was 20). After the application of the lipopolysaccharide, the rats were maintained for a definite period of time (1 hour, 3 hours, 6 hours, 7 hours, 9 hours), then narcotized with hexenal (300 mg/kg weight), and a sample of the tracheal epithelial tissue was isolated. For histochemical investigations the isolated sample was placed into a fixing solution containing 2% of formaldehyde and 0.5% of glutaraldehyde. The tissue was dehydrated by sequential routing through ethyl alcohol with increasing concentration (40-100%). The tissue was embedded into LR white resin. The resin was polymerized at room temperature. 0.5 em-thick sections were made on an LKB ultratome (Sweden), using glass knives. The sections were stained with a hematoxylin-eosine and analyzed under a light microscope.
For biochemical investigations we scraped the epithelium with a thin spatula, washed off the scrape with physiological solution and centrifugated at 10000 g for 15 min. The concentration of hydrogen peroxide was by the luminescence method. […] After LPS, application of a solution of a composition based on peroxiredoxin Prx VI into the trachea was carried out. Preliminarily the rats were narcotized by intraperitoneal administration of hexenal (70 mg/kg), the animals were fixed on an operating table, and under visual control with the aid of a binocular lens, through a catheter of 1 mm in diameter, peroxiredoxin solution (20 to 100 μl) was introduced into the trachea. The peroxiredoxin concentration was from 0.5 to 5.0 mg/ml. A 0.9% solution of NaCl was used as the solvent. The application of the solution of the composition was carried out once, immediately after the application of LPS. The application of pure solvent, solutions of serum albumin (10 mg/ml) and of glutathione (10 mM) were used as control.
Histological investigation of the trachea was carried out 24 hrs after the LPS application.

[3] = test system: Wistar line rats subjected to gamma-irradiation; assay: Survival of rats after gamma-irradiation at a dose of 6 Gy; details: for number of rats survived: groups of 6 rats, intravenous before irradiation
Description: The radioprotector properties of peroxiredoxin in experiments in vivo are determined on an example of protecting animals from the action of gamma-irradiation in a sublethal dose with an intensity of 6 Gy.
Simultaneous irradiation of all animals (Wistar line rats weighing 200 grams) was carried out on a GUBE apparatus. The exposure dose was 6 Gy. The rats were divided into two groups. The first group of the animals (n=6) was used for control. The animals of the second group (n=6) 30-60 minutes before the irradiation were administered intravenously with 1 mg of peroxiredoxin Prx VI (1 ml of physiological solution at the peroxiredoxin concentration of 1 μg/ml). After the irradiation the animals were kept in common premises with sufficient amount of food, illumination and ventilation. For histological investigation animals with symptoms of worsened general conditions were chose from each group.

[4] = test system: T-lymphocytes from the spleen of line NRRI rats stimulated with concavalin A; assay: Proliferation of concanavalin A-stimulated T-lymphocytes (3H-thymidine inclusion); format: cell-based; details: 0.1-1.0 mg/ml concentration, against cells stimulated only with concavalin A
Description: as §1, §2

oxyhemoglobin = assay: Protection of oxyhemoglobin from the action of ionizing radiation; format: biochemical; details: about 50 μg/ml added before irradiation; 10 Gy; registered at 635 nm
Description: The antiradiation properties of Prx Vlhum are investigated both in vitro, by investigating a solution of hemoglobin, and in vivo on animals. Irradiation of a solution of hemoglobin (see Example 10) leads to essential changes in its structure (appearance of peaks at 635 nm and an increase of light scattering), this being indicative of conversion of oxyhemoglobin to methemoglobin, followed by the aggregation thereof.
For checking the possibility of protecting biological macromolecules from destruction caused by ionizing radiation with the aid of peroxiredoxin, we have investigated the characteristics of irradiated oxyhemoglobin in control and in the presence of peroxiredoxin. In control we used a solution of oxyhemoglobin (0.16 D at 540 nm) in 0.1 M of Tris-HCl (pH 7.0) which was irradiated in a GUBE apparatus with the total exposure dose of 10 Gy. As the radioprotector peroxiredoxin Prx V1hum was used in different concentrations (5-100 μg/ml) in the presence of 50 μM of dithiothreitol. The formation of oxidized forms of oxyhemoglobin (methemoglobin) was registered at 635 nm, and aggregation of methemoglobin was registered at 700 nm.

[5] = test system: glutamine synthetase of E.coli; details: DTT/Fe3+/O2 oxidative system, 3 mM activator, 10 min at 37° C.; FIG. 3
Description: Comparison of the protector properties of recombinant full-size Prx Vlhum with the protector properties of natural rat Prx VIrat and with the protector properties of N-terminal ΔPrx V1hum in terms of protecting glutamine synthetase of E.coli from inactivation in a model oxidative system in vitro.
For determining the activity of different types of peroxiredoxins, their ability to protect glutamine synthetase from the DTT/Fe^+3/O2 oxidative system is measured. Glutamine synthetase is isolated from cells of the E.coli DH5α strain (Streicher S. L., Tyler B., 1980) and inactivated in the presence of a Fe^3+/O2 oxidative system and a peroxiredoxin activator—in the model oxidative system generating free radicals (Kim K. et al., 1988). […] The residual activity of glutamine synthetase is assessed by adding to the sample 200 μl of a reaction mixture which comprises: ADP, 0.4 mM; glutamine, 150 mM; K—AsO4, 10 mM; NH2OH, 20 mM; MnCl2, 0.4 mM; HEPES, 100 mM, pH 7.4. […] The protector properties of peroxiredoxin for protecting glutamine synthetase of E.coli from inactivation are determined as the ratio of the remaining activity of the enzyme after the inactivation in the presence of different concentrations of peroxiredoxin to the activity of non-inactivated glutamine synthetase.

[6] = Distribution of labeled peroxiredoxin in the organism after intravenous injection; format: in vivo, rat; details: 10 mg per animal, fluorescein-labeled
Description: For detecting the distribution of exogenous peroxiredoxin Prx VI in different tissues of the organism, a recombinant Prx V1hum labeled with fluorescein isocyanate was introduced into the rat's vein in an amount of 10 mg per animal. After definite periods of time the animals were sacrificed, the tissues of different organs were isolated, and luminescent analysis of the obtained samples was carried out. […] Thus, the method of introducing peroxiredoxin Prx VI by intravenous injection makes it possible to increase its content in almost all the tissues of the organism.

B1: Prx VIhum: recombinant full-size human peroxiredoxin Prx VI, 224 amino acids (SEQ ID NO: 1), produced in E.coli (protein)
chain: MPGGLLLGDVAPNFEANTTVGRIRFHDFLGDSWGILFSHPRDFTPVCTTELGRAAKLAPEFAKRNVKLIALSIDSVEDHLAWSKDINAYNCEEPTEKLPFPIIDDRNRELAILLGMLDPAEKDEKGMPVTARVVFVFGPDKKLKLSILYPATTGRNFDEILRVVISLQLTAEKRVATPVDWKDGDSVMVLPTIPEEEAKKLFPKGVFTKELPSGKKYLRYTPQP
Skin cuts of rats
  healing of the wound: almost complete healing of the wound
[1]
  effect on the number of live line L929 cells: did not produce any effect
[2]; 24 hrs after LPS, application immediately after the LPS, FIG. 9B
  preservation of the tracheal epithelium: Complete preservation of the epithelium
[2]; Time after the action of LPS: 1 hour
  Integrity of tracheal epithelium (according to histological data): 90%
[2]; Time after the action of LPS: 3 hours
  Integrity of tracheal epithelium (according to histological data): 80%
[2]; Time after the action of LPS: 6 hours
  Integrity of tracheal epithelium (according to histological data): 65%
[3]; 3 months, 6 Gy
  number of rats survived: 6
[3]; 6 months, 6 Gy
  number of rats survived: 5
[3]; 12 months, 6 Gy
  number of rats survived: 4
[3]; 15 months, 6 Gy
  number of rats survived: 4
[3]; administered before irradiation, 6 Gy, versus control group
  mortality of the rats: essentially lower than in the control group
[3]; one year after the irradiation, compared with the control group
  general condition of the survived animals: differed markedly in favor of the second group
[3]; single injection into a vein 30 minutes before irradiation, 6 Gy
  number of irradiation-associated malignant neoplasms: diminish the number of irradiation -associated malignant neoplasms
[4]
  cell proliferation level of T-lymphocytes stimulated with concavalin A: increased approximately twofold
oxyhemoglobin
  concentration of oxidized forms of hemoglobin: lowered almost to zero
[5]
  protector properties: antioxidant characteristics in protecting glutamine synthetase from inactivation: close to the natural rat peroxiredoxin Prx VIrat
[6]; 15 minutes after intravenous injection, luminescent analysis
  distribution among organs: uniformly distributes among all the organs of the rat, including the brain
[6]; after intravenous injection
  amount in bone marrow: small, compared with other tissues
